According to patent publication US20260209325A1 (SCHOLAR ROCK, published 2026):
Read-outs that look alike come from different tables or passages of the source. Blank lines part the entries; values can stand above or below the binder they belong to.

Key:
human pro-myostatin [1] = target: T1, human pro-myostatin (human, UniProt O14793 24-375, biotinylated (in the SPR assay)); test: plate binding assay, OD 450 nm, antibody titrated 0.0003 to 100 nM, panel 'Hu-Pro-GDF-8 Plate 1' (method not described in the text)
T1 construct: Disulfide-linked homodimer; also called proGDF8 (human)

murine pro-myostatin [2] = target: T2, murine pro-myostatin (mouse, UniProt O08689 25-376, biotinylated (in the SPR assay)); test: plate binding assay, OD 450 nm, antibody titrated 0.0003 to 100 nM, panel 'Mu-Pro-GDF-8 Plate 1' (method not described in the text)
T2 construct: also called proGDF8 (mouse); mouse pro-myostatin

mouse GDF-11 = mouse GDF-11 (mouse, UniProt Q9Z1W4 297-405, limits assumed); test: plate binding assay, OD 450 nm, one antibody concentration that is not given, on Mu-GDF-11 (method not described in the text)
mouse GDF-11, sequence (Q9Z1W4 297-405 limits assumed): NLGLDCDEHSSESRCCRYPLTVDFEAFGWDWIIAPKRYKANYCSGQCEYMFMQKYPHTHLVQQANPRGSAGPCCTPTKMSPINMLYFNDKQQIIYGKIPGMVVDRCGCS

human GDF-11 = human GDF-11 (human, UniProt O95390 299-407, limits assumed); test: plate binding assay, OD 450 nm, one antibody concentration that is not given, on Hu-GDF-11 (method not described in the text)
human GDF-11, sequence (O95390 299-407 limits assumed): as the sequence (Q9Z1W4 297-405 limits assumed) above

cyno pro-myostatin [3] = target: T3, cyno pro-myostatin (cynomolgus monkey, Biotinylated for capture in the SPR assay (site not stated). The native form is a disulfide-linked homodimer, partly furin-cleaved; one chain is given.); test: plate binding assay, OD 450 nm, antibody titrated 0.0003 to 100 nM, panel 'Cyno-Pro-GDF-8 Plate 3' (method not described in the text)
T3 construct: also called proGDF8 (cynomolgus); cynomolgus monkey pro-myostatin

human pro-myostatin [4] = target: T1, human pro-myostatin; test: plate binding assay, OD 450 nm, antibody titrated 0.0003 to 100 nM, panel 'Hu-Pro-GDF-8 Plate 3' (method not described in the text)
murine pro-myostatin [5] = target: T2, murine pro-myostatin; test: plate binding assay, OD 450 nm, antibody titrated 0.0003 to 100 nM, panel 'Mu-Pro-GDF-8 Plate 3' (method not described in the text)
[6] = target: T4, recombinant human latent myostatin (human, UniProt O14793 24-375, biotinylated (in the Octet pH assay only)); test: cell-based or functional assay
[7] = target: T4, recombinant human latent myostatin; test: BLI (Octet Red384): streptavidin biosensors loaded with biotinylated human latent myostatin, antibody association 300 s, dissociation in PBS at pH 7.4 or pH 5.5
Method: (§1) Binding was performed at pH 7.4 and dissociation at pH 5.5 in an Octet Red384@assay. Streptavidin biosensors were baselined in 1x kinetics buffer (KB) (Sartorius) for one minute, then loaded with 100 nM biotinylated human latent myostatin for five minutes, followed by another baseline step of one minute in 1x KB. Binding of test antibodies was performed for five minutes and then dissociation was performed in PBS at either pH 7.4 or pH 5.5 for five minutes. Analysis was performed using a partial fit, in which full dissociation was projected. Kd at pH 5.5 was divided by Kd at pH 7.4 to calculate pH sensitivity.

human pro-myostatin [8] = target: T1, human pro-myostatin; test: Ab KD, summary Table 11; method and antigen not stated there
murine pro-myostatin [9] = target: T2, murine pro-myostatin; test: SPR Biacore 8K, biotin-antigen captured
human pro-myostatin [10] = target: T1, human pro-myostatin; test: SPR Biacore 8K, biotin-antigen captured
cyno pro-myostatin [11] = target: T3, cyno pro-myostatin; test: SPR Biacore 8K, biotin-antigen captured
[12] = target: T4, recombinant human latent myostatin; test: cell-based or functional assay; remark: listed apart in the source
human pro-myostatin [13] = target: T1, human pro-myostatin; test: cell-based or functional assay
[14] = target: T4, recombinant human latent myostatin; test: BLI (Octet Red384): streptavidin biosensors loaded with biotinylated human latent myostatin, antibody association 300 s, dissociation in PBS at pH 7.4 or pH 5.5; remark: listed apart in the source
Method: as §1

[15] = target: T4, recombinant human latent myostatin; test: cell-based or functional assay; remark: listed apart in the source
cyno pro-myostatin [16] = target: T3, cyno pro-myostatin; test: plate binding assay, absorbance at 450 nm, antibody titrated 100 to about 0.002 nM, panel 'Cyno Pure Pro-GDF-8' (method not described in the text)
human pro-myostatin [17] = target: T1, human pro-myostatin; test: plate binding assay, absorbance at 450 nm, antibody titrated 100 to about 0.002 nM, panel 'Human Pure Pro-GDF-8' (method not described in the text)

B2: Ab122 (antibody, human IgG4 S228P, kappa, V domains shown)
VH: QVTLRESGPALVKPTQTLTLTCTVSGGSLSSGGSYVNWIRQPPGKALEWLAMTDWDADNIVYNSALKSRLTISKDTSKNQVVLTMTNMDPVDTATYYCAHRQNVDSYGYWGDAFDIWGQGTMVTVSS
VL: DIVMTQSPDSLAVSLGERATINCKSSQSVLYSADNKNYLAWYQQKPGQPPKLLIYDASSLENGVPDRFSGSGSGTDFTLTISSLQAEDVAVYYCQQGHLFPYSFGGGTKVEIKR
notes: The light chain is printed ending ...NRGE, without the last C
EC50 (read off the curve) (cyno pro-myostatin [3]): ~0.2 nM
EC50 (read off the curve) (human pro-myostatin [4]): ~0.5 nM
EC50 (read off the curve) (murine pro-myostatin [5]): ~0.6 nM

B5: Ab106 (antibody, human IgG4 S228P, kappa, V domains shown)
VH: EVQLVESGGGLVQPGGSLRLSCAASGSAFSSYGMSWVRQAPGKGLELVASINSNGGSTYYPDSVKGRFTISRDNAKNSLYLQMNSLRAEDTAVYYCARDLLVRFLEWAGYYGMDVWGQGTTVTVSS
VL: DIVMTQSPLSLPVTPGEPASISCRSSQSLLHSSGHNFLHWYLQKPGQSPQLLIYEVSNRVSGVPDRFSGSGSGTDFTLKISRVEAEDVGVYYCMQQTQYPPTFGGGTKVEIKR
EC50 (read off the curve) (cyno pro-myostatin [16]): ~0.2 nM
EC50 (read off the curve) (human pro-myostatin [17]): ~0.2 nM
Kd (murine pro-myostatin [9]): 0.162 nM
koff (murine pro-myostatin [9]): 0.000317 s⁻¹
kon (murine pro-myostatin [9]): 1.96e+06 M⁻¹ s⁻¹
Kd (human pro-myostatin [10]): 0.112 nM
koff (human pro-myostatin [10]): 0.000224 s⁻¹
kon (human pro-myostatin [10]): 2e+06 M⁻¹ s⁻¹
Kd (cyno pro-myostatin [11]): 0.152 nM
koff (cyno pro-myostatin [11]): 0.000291 s⁻¹
kon (cyno pro-myostatin [11]): 1.91e+06 M⁻¹ s⁻¹
IC50 (nM) Latent + mTLL2 [12]: 0.163 nM
IC50 (nM) Pro + Furin (human pro-myostatin [13]): 0.233 nM

B7: Ab113 (antibody, human IgG4 S228P, kappa, V domains shown)
VH: QVQLVQSGAEVKKPGASVKVSCKVSGYLLTELSIHWVRQAPGKGLEWMGGIIPSFGTAIYAQKFQGRVTMTEDTSTDTAYMELSSLKSEDTAVYYCAISYSGFDLLPLDKWGQGTLVTVSS
VL: DIQMTQSPSSVSASVGDRVTITCRASQHISTWLAWYQQKPGKAPKLLIYYASSLQGGVPSRFSGSGSGTDFTLTISSLQPEDFANYYCLQTYTYPRTFGGGTKVEIKR
EC50 (read off the curve) (human pro-myostatin [1]): ~0.2 nM
EC50 (read off the curve) (murine pro-myostatin [2]): ~0.4 nM
binding result (mouse GDF-11): no binding
binding result (human GDF-11): no binding

Now from value to binder:

binding result (human pro-myostatin [1]): binds
binding result (murine pro-myostatin [2]): binds
binding result (mouse GDF-11): no binding
binding result (human GDF-11): no binding
B1: Ab111 (antibody, human IgG4 S228P, kappa, V domains shown)
VH: QVQLVQSGAEVKKPGASVKVSCKVSGYTFTSNDIHWVRQAPGKGLEWMGGIFPIFGTTIYAQKFQGRVTMTEDTSTDTAYMELSSLKSEDTAVYYCAREGLGYDFDYWGQGTLVTVSS
VL: DIQMTQSPSSVSASVGDRVTITCRASQNIGNWLAWYQQKPGKAPKLLIYSASALQSGVPSRFSGSGSGTDFTLTISSLQPEDFANYYCQQSYGAPMYSFGGGTKVEIKR

IC50 of inhibition of myostatin activation by mTLL-2 (functional ELISA, FIG. 1A) [6]: 0.38 nM
IC50 of inhibition of myostatin activation by mTLL-2 (functional ELISA, FIG. 1B) [6]: 0.33 nM
fold difference in off-rate (Kd at pH 5.5 / Kd at pH 7.4) [7]: 25 fold
Kd (human pro-myostatin [8]): 0.579 nM
Kd (murine pro-myostatin [9]): 0.197 nM
koff (murine pro-myostatin [9]): 0.00134 s⁻¹
kon (murine pro-myostatin [9]): 6.81e+06 M⁻¹ s⁻¹
Kd (human pro-myostatin [10]): 0.138 nM
kon (human pro-myostatin [10]): 6.62e+06 M⁻¹ s⁻¹
Kd (cyno pro-myostatin [11]): 0.128 nM
koff (cyno pro-myostatin [11]): 0.000925 s⁻¹
kon (cyno pro-myostatin [11]): 7.23e+06 M⁻¹ s⁻¹
IC50 (nM) Latent + mTLL2 [12]: 0.145 nM
IC50 (nM) Pro + Furin (human pro-myostatin [13]): 0.214 nM
fold difference in off-rate (Kd at pH 5.5 / Kd at pH 7.4) [14]: 18.4 fold
mTLL2 IC50 [15]: 0.145 nM
B3: Ab109 (antibody, human IgG4 S228P, kappa, V domains shown)
VH: EVQLVESGGGLVQPGGSLRLSCAASGFTFSSYGMSWVRQAPGKGLELVASFTGSGGTYYPDSVKGRFTISRDNAKNSLYLQMNSLRAEDTAVYYCARDLLIRFLEWSHYYGMDVWGQGTTVTVSS
VL: DIVMTQSPLSLPVTPGEPASISCRSSQSLLHSSGHNFLHWYLQKPGQSPQLLIYEVSNRVSGVPDRFSGSGSGTDFTLKISRVEAEDVGVYYCMQQTQYPPTFGGGTKVEIKR
notes: human IgG4 in the EM experiment; also called Ab109 Human IgG4

fold difference in off-rate (Kd at pH 5.5 / Kd at pH 7.4) [7]: 24 fold
Kd (human pro-myostatin [8]): 0.926 nM
mTLL2 IC50 [15]: 0.144 nM
B4: Ab132 (antibody, human IgG4 S228P, kappa, V domains shown)
VH: EVQLVESGGGLVQPGGSLRLSCAASGFTFSSYGMSWVRQAPGKGLELVASFTGSGGTYYPDSVKGRFTISRDNAKNSLYLQMNSLRAEDTAVYYCARDLLIRFLEWSHYYGMDVWGQGTTVTVSS
VL: DIVMTQSPLSLPVTPGEPASISCRSSQSLLHSSGHNFLHWYLQKPGQSPQLLIYEVSNRVSGVPDRFSGSGSGTDFTLKISRVEAEDVGVYYCQQQTQYPPTFGGGTKVEIKR

Kd (murine pro-myostatin [9]): 0.325 nM
koff (murine pro-myostatin [9]): 0.000265 s⁻¹
kon (murine pro-myostatin [9]): 815000 M⁻¹ s⁻¹
Kd (human pro-myostatin [10]): 0.262 nM
koff (human pro-myostatin [10]): 0.000213 s⁻¹
kon (human pro-myostatin [10]): 813000 M⁻¹ s⁻¹
Kd (cyno pro-myostatin [11]): 0.327 nM
koff (cyno pro-myostatin [11]): 0.000269 s⁻¹
kon (cyno pro-myostatin [11]): 821000 M⁻¹ s⁻¹
IC50 (nM) Latent + mTLL2 [12]: 0.14 nM
IC50 (nM) Pro + Furin (human pro-myostatin [13]): 0.195 nM
EC50 (read off the curve) (cyno pro-myostatin [3]): ~0.3 nM
EC50 (read off the curve) (human pro-myostatin [4]): ~0.4 nM
binding result (mouse GDF-11): no binding
binding result (human GDF-11): no binding
EC50 (read off the curve) (murine pro-myostatin [5]): ~0.6 nM
B6: Ab127 (antibody, human IgG4 S228P, kappa, V domains shown)
VH: EVQLVESGGGLVQPGGSLRLSCTASGFTFGSYPMDWVRQAPGKGLEWVSYISGRGDVTYYADSVKGRFTISRDNAKNTLYLQMNSLRAEDTAVYYCAKVQSPSELLWFGELLPVDYWGQGTLVTVSS
VL: DIQMTQSPSSLSASVGDRVTITCQASQVIKTWLNWYQQKPGKAPKLLIYDASNLQRGVPSRFSGSGSGTDFTFTISSLQPEDIATYYCQQSASTPITFGGGTKVEIKR
